{
  "source": "paper PMC7319273",
  "about": "(Science (New York, N.y.), 2020)",
  "settings_in_all_cases": "both partners purified",
  "key": {"[1]": {"target": "SARS-CoV-2 Spike protein S1 (SARS-CoV-2, Wuhan-Hu-1 (P0DTC2), UniProt P0DTC2)", "assay": "BLI"}, "[2]": {"target": "SARS-CoV-2 Spike protein S2 (SARS-CoV-2, Wuhan-Hu-1 (P0DTC2), UniProt P0DTC2)", "assay": "BLI"}, "[3]": {"target": "T1, SARS-CoV-2 Spike protein receptor binding domain (RBD) (Severe acute respiratory syndrome …, UniProt P0DTC2)", "assay": "BLI"}, "[4]": {"target": "T1, SARS-CoV-2 Spike protein receptor …", "assay": "ELISA"}},
  "data": [
    {"binder": "1M-1D2 (human monoclonal antibody) (antibody, V domains shown) VH: QVQLVESGGGLVQPGGSLRLSCAASGFTFSSYAMHWVRQAPGKGLEYVSAISGNGGSTYYAKSVKGRFTISRDNSKNTLYLQMGSLRAEDMAVYYCARGAEYYDFWSGYYSAYFDYWGQGTLVTVSS VL: QAVVTQPPSASGTPGQRVTISCSGSSSNIGSNYVYWYQQLPGTAPKLLIYNNNQRPSGVPDRFSGSKSGTSASLAISGLRSEDEADYYCAAWDDSLIYVLFGGGTKLTVL", "values": [
      {"measurement": "Kd", "setting": "[1]", "value": 108, "unit": "nM"}
    ]},
    {"binder": "9A1 (human monoclonal antibody) (antibody, V domains shown, also called mAb 9A1) VH: EVQLLESGGGVVQPGRSLRLSCVVSGFTFNNYGMHWVRQAPGKGLEWVAVISYEGSVKYYGDHVDGRFTISRDPFKNTLYLHMNNLRPDDTAVYYCAKVSAIFWLGQGLSPIDVWGQGTTVTVSS VL: DIVMTQSPATLSASPGERVTLSCRASQNIRNNLAWYQQKPGQAPRLLIHGASTRAAGAPARFSGSGSDTQFTLTVSSLQSEDFAVYYCHQYSKWPVTFGGGTKVDIK", "values": [
      {"measurement": "Kd", "setting": "[2]", "value": "< 0.001", "unit": "nM"}
    ]},
    {"binder": "2M-10B11 (human monoclonal antibody) (antibody, V domains shown, ELISA group 2B; also called mAb 2M-10B11) VH: EVQLVESGGGLVQPGGSLRLSCAASGFTVSSNYMSWVRQAPGKGLEWVSVIYSGGSTYYADSVKGRFTISRDNSKNTLYLQMNSLRAEDTAVYYCARATWLRGVMDVWGQGTTVTVSS VL: QSALTQPHSVSESPGKTVTISCTGSSGSIASNYVQWYQQRPGSAPTTVIYEDNQRPSGVPDRFSGSIDSSSNSASLTISGLKTEDEADYYCQSYDSSNHWVFGGGTKLTVL", "values": [
      {"measurement": "Kd", "setting": "[3]", "value": 24.3, "unit": "nM"}
    ]},
    {"binder": "0304-3H3 (human monoclonal antibody) (antibody, V domains shown, also called mAb 0304-3H3) VH: EVQLVESGPGLVKPSETLSLTCTASGGSISTYYWSWIRQPPGKGLEWIGYIYYSGSTNYNPSLKSRVTISVDTSKNQFSLKLSSVTAADTAVYYCARDRIAPVGKFFGWYFDLWGRGTLVTVSS VL: not shown", "values": [
      {"measurement": "Kd", "setting": "[2]", "value": 4.52, "unit": "nM"}
    ]},
    {"binder": "4A8 (human monoclonal antibody) (antibody, V domains shown) VH: EVQLVESGAEVKKPGASVKVSCKVSGYTLTELSMHWVRQAPGKGLEWMGGFDPEDGETMYAQKFQGRVTMTEDTSTDTAYMELSSLRSEDTAVYYCATSTAVAGTPDLFDYYYGMDVWGQGTTVTVSS VL: EIVMTQSPLSSPVTLGQPASISCRSSQSLVHSDGNTYLSWLQQRPGQPPRLLIYKISNRFSGVPDRFSGSGAGTDFTLKISRVEAEDVGVYYCTQATQFPYTFGQGTKVDIK", "values": [
      {"measurement": "Kd", "setting": "[1]", "value": 92.7, "unit": "nM"},
      {"measurement": "binding result", "setting": "[4]", "value": "no binding"}
    ]}
  ]
}
